{"source": "paper PMC12102759", "parents": {"B1": {"name": "PIP5K1C peptide 640-655 (Phosphatidylinositol 4-phosphate 5-kinase type-1 gamma), 16-mer library wild type / TLN1 PTB (TLN1 Phosphotyrosine-binding (PTB) domain, residues 309-401) (parent)", "chain 1": "FPTDERSWVYSPLHYS", "chain 2": "GVSFFLVKEKMKGKNKLVPRLLGITKECVMRVDEKTKEVIQEWNLTNIKRWAASPKSFTLDFGDYQDGYYSVQTTEGEQIAQLIAGYIDIILK"}}, "data": [{"variants_of": "B1", "assay": "proteomic peptide phage display deep mutational scan (ProP-PD DMS): M13 P8 16-mer library selected against immobilised GST-tagged bait for four days (rounds), NGS of the eluted pools per day and pseudo-replica", "settings": "with TLN1 PTB (TLN1 Phosphotyrosine-binding (PTB) domain, residues 309-401); bait immobilised on MaxiSorp plates (10 µg), library pre-cleared on GST, 2 h binding at 4 °C, five washes; one round per day, days 1-4; value from days 2 and 3; keep out of graded; scale: average fractional NGS count over selection days 2 and 3", "values": [{"variant": "chain 1 FPTDERSWGYSPLHYS", "note": "[chain 1 V9G]", "screen value": 0.000185}, {"variant": "chain 1 FPTDERSWKYSPLHYS", "note": "[chain 1 V9K]", "screen value": 0.000808}, {"variant": "chain 1 FPTDERSWSYSPLHYS", "note": "[chain 1 V9S]", "screen value": 0.000334}, {"variant": "chain 1 FPTDERSDVYSPLHYS", "note": "[chain 1 W8D]", "screen value": 0}, {"variant": "chain 1 FPTDERSGVYSPLHYS", "note": "[chain 1 W8G]", "screen value": 0}, {"variant": "chain 1 FPTDERSFVYSPLHYS", "note": "[chain 1 W8F]", "screen value": "7.15e-05"}, {"variant": "chain 1 FPTDERSWVYSPLHYV", "note": "[chain 1 S16V]", "screen value": 0.000729}, {"variant": "chain 1 FPTDERSWVYSPLHYW", "note": "[chain 1 S16W]", "screen value": "3.45e-05"}, {"variant": "chain 1 FPTDERSWVYSPLHYA", "note": "[chain 1 S16A]", "screen value": 0.000894}, {"variant": "chain 1 FPTDERSWVYSPLHYT", "note": "[chain 1 S16T]", "screen value": 0.000518}, {"variant": "chain 1 FPTDERSWVYSPLHYF", "note": "[chain 1 S16F]", "screen value": 0.000114}, {"variant": "chain 1 FPTDERSWVYSPLHYI", "note": "[chain 1 S16I]", "screen value": 0.00119}, {"variant": "chain 1 FPTDERSWVYSPLHYN", "note": "[chain 1 S16N]", "screen value": 0.000165}, {"variant": "chain 1 FPTDERSWVYSPLHYG", "note": "[chain 1 S16G]", "screen value": 0.00097}, {"variant": "chain 1 FPTDERSWVYSPLHYE", "note": "[chain 1 S16E]", "screen value": 0.000308}, {"variant": "chain 1 FPTDERSWVYSPLHYQ", "note": "[chain 1 S16Q]", "screen value": "5.76e-05"}, {"variant": "chain 1 FPTDERSWVYSPLHYH", "note": "[chain 1 S16H]", "screen value": 0.00034}, {"variant": "chain 1 FPTDERSWVYSPLHYR", "note": "[chain 1 S16R]", "screen value": 0.000132}, {"variant": "chain 1 FPTDERSWVYSPLHYP", "note": "[chain 1 S16P]", "screen value": 0.000199}, {"variant": "chain 1 FPTDERSWVYSPLHYM", "note": "[chain 1 S16M]", "screen value": 0.000225}, {"variant": "chain 1 FPTDERSWVYSPLHYY", "note": "[chain 1 S16Y]", "screen value": 0.000212}, {"variant": "chain 1 FPTDERSWVYSPLHYL", "note": "[chain 1 S16L]", "screen value": 0.000143}, {"variant": "chain 1 FPTDERSWVYLPLHYS", "note": "[chain 1 S11L]", "screen value": 0}, {"variant": "chain 1 FPTDERSWVYMPLHYS", "note": "[chain 1 S11M]", "screen value": "3.45e-05"}, {"variant": "chain 1 FPTDERSWVYAPLHYS", "note": "[chain 1 S11A]", "screen value": "7.18e-05"}, {"variant": "chain 1 FPTDERSWVYIPLHYS", "note": "[chain 1 S11I]", "screen value": 0}, {"variant": "chain 1 FPTDERSWVYPPLHYS", "note": "[chain 1 S11P]", "screen value": "7.58e-05"}, {"variant": "chain 1 FPTDERSWVYDPLHYS", "note": "[chain 1 S11D]", "screen value": 0}, {"variant": "chain 1 FPTDERLWVYSPLHYS", "note": "[chain 1 S7L]", "screen value": 0.00013}, {"variant": "chain 1 FPTDERRWVYSPLHYS", "note": "[chain 1 S7R]", "screen value": 0.000434}, {"variant": "chain 1 FPTDERGWVYSPLHYS", "note": "[chain 1 S7G]", "screen value": "6.31e-05"}, {"variant": "chain 1 FPTDERVWVYSPLHYS", "note": "[chain 1 S7V]", "screen value": "6.47e-05"}, {"variant": "chain 1 FPTDERMWVYSPLHYS", "note": "[chain 1 S7M]", "screen value": 0.000552}, {"variant": "chain 1 FPTDERIWVYSPLHYS", "note": "[chain 1 S7I]", "screen value": 0.00143}, {"variant": "chain 1 FPTDERDWVYSPLHYS", "note": "[chain 1 S7D]", "screen value": "8.2e-05"}, {"variant": "chain 1 FPTDERTWVYSPLHYS", "note": "[chain 1 S7T]", "screen value": 0.000136}, {"variant": "chain 1 FPTDERHWVYSPLHYS", "note": "[chain 1 S7H]", "screen value": 0.00017}, {"variant": "chain 1 FPTDERYWVYSPLHYS", "note": "[chain 1 S7Y]", "screen value": 0.000136}, {"variant": "chain 1 FPTDEREWVYSPLHYS", "note": "[chain 1 S7E]", "screen value": "6.81e-05"}, {"variant": "chain 1 FPTDERNWVYSPLHYS", "note": "[chain 1 S7N]", "screen value": "3.76e-05"}, {"variant": "chain 1 FPTDERPWVYSPLHYS", "note": "[chain 1 S7P]", "screen value": 0}, {"variant": "chain 1 FPTDERKWVYSPLHYS", "note": "[chain 1 S7K]", "screen value": 0.000214}, {"variant": "chain 1 FPTDERWWVYSPLHYS", "note": "[chain 1 S7W]", "screen value": 0.000136}, {"variant": "chain 1 FPTDESSWVYSPLHYS", "note": "[chain 1 R6S]", "screen value": 0.00302}, {"variant": "chain 1 FPTDEVSWVYSPLHYS", "note": "[chain 1 R6V]", "screen value": 0.000984}, {"variant": "chain 1 FPTDEDSWVYSPLHYS", "note": "[chain 1 R6D]", "screen value": 0.000455}, {"variant": "chain 1 FPTDENSWVYSPLHYS", "note": "[chain 1 R6N]", "screen value": "8.35e-05"}, {"variant": "chain 1 FPTDEQSWVYSPLHYS", "note": "[chain 1 R6Q]", "screen value": "9.86e-05"}, {"variant": "chain 1 FPTDETSWVYSPLHYS", "note": "[chain 1 R6T]", "screen value": 0.000205}, {"variant": "chain 1 FPTDEPSWVYSPLHYS", "note": "[chain 1 R6P]", "screen value": 0.000213}, {"variant": "chain 1 FPTDEWSWVYSPLHYS", "note": "[chain 1 R6W]", "screen value": 0.000249}, {"variant": "chain 1 FPTDEKSWVYSPLHYS", "note": "[chain 1 R6K]", "screen value": "9.21e-05"}, {"variant": "chain 1 FPTDEESWVYSPLHYS", "note": "[chain 1 R6E]", "screen value": 0}, {"variant": "chain 1 FPTDELSWVYSPLHYS", "note": "[chain 1 R6L]", "screen value": 0.000156}]}]}
